Read-outs that look alike come from different tables or passages of the source. Non-standard residues stand in square brackets, D forms with d. Primed or numbered codes have the meaning given here. No end group written: not given here. *: point of attachment. 5FAM = O=C1OC2(c3ccc(O)cc3Oc3cc(O)ccc32)c2ccc(C(=O)*)cc21; CPQ2 = quencher on the Lys side chain; PEG2′ = polyethylene glycol linker
How the values were obtained:
MMP9 = target: T1, MMP9 (Homo sapiens, UniProt P14780); test: In vitro recombinant protease assay: cleavage of nanoparticle-presented FRET substrate by MMP9; type: biochemical; conditions: 6 μM substrate
T1 construct: purchased Enzo Life Sciences
T1 sequence (P14780 94-707): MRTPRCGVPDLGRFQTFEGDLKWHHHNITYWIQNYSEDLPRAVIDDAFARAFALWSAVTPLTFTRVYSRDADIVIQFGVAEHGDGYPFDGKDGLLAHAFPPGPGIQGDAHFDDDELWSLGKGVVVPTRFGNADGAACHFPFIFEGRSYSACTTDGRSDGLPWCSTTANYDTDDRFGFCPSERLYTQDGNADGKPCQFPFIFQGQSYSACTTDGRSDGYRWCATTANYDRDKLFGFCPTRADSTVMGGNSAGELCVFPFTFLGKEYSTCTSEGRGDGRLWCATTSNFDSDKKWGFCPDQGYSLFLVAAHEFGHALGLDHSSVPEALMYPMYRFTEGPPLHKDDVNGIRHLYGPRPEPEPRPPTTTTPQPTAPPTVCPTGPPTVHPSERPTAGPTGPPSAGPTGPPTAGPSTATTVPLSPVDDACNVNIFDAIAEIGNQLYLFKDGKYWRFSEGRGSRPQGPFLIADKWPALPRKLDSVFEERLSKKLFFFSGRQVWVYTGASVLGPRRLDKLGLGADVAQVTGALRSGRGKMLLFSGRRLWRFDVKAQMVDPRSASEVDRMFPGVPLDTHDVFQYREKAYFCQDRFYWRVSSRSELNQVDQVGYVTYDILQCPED
Method: In some embodiments, surface presentation of peptide substrates allows tuning of specificity between on- and off-target proteolytic cleavage rates of the substrate (e.g., MMP9 substrate). The cleavage kinetics of an MMP9 peptide substrate (PLGVRGK; SEQ ID NO: 15), flanked by a fluorescence resonance energy transfer (FRET) pair, at varying distances from the nanoparticle core (FIG. 3A) were tested. For this substrate, the rate of cleavage by MMP9 increased with increasing presentation distance (tether length) for all the substrate concentrations tested (0.5, 1.0, 2.0, 4.0 and 6.0 μM); as an example, cleavage velocity (V) increased from 0.24 to 0.96 nM s^−1 at 6 μM (FIG. 3B). Unexpectedly, this phenomenon was not generalizable across enzymes. For example, cleavage rates by the serine protease, thrombin, decreased with increasing presentation distance when the same substrate was tested (e.g., V at 6 μM of substrate decreased from 0.29 to 0.01 nM s^−1; FIG. 3C). Nor was it generalizable across substrates. […]
Nanoparticles coupled with intramolecularly quenched peptide substrates were reacted with recombinant proteases to identify cleavage velocities. […] (SpectroMax Gemini EM microplate reader). Michaelis-Menten constants were determined by assessing initial cleavage velocities at different substrate concentrations (Prism 5.0, GraphPad). […]

thrombin = target: T2, thrombin (Homo sapiens, UniProt P00734); test: In vitro recombinant protease assay: cleavage of nanoparticle-presented FRET substrate by thrombin; type: biochemical; conditions: for cleavage velocity (V) by thrombin: 6 μM substrate
T2 construct: purchased Haematologic Technologies
Method: In some embodiments, surface presentation of peptide substrates allows tuning of specificity between on- and off-target proteolytic cleavage rates of the substrate (e.g., MMP9 substrate). The cleavage kinetics of an MMP9 peptide substrate (PLGVRGK; SEQ ID NO: 15), flanked by a fluorescence resonance energy transfer (FRET) pair, at varying distances from the nanoparticle core (FIG. 3A) were tested. For this substrate, the rate of cleavage by MMP9 increased with increasing presentation distance (tether length) for all the substrate concentrations tested (0.5, 1.0, 2.0, 4.0 and 6.0 μM); as an example, cleavage velocity (V) increased from 0.24 to 0.96 nM s^−1 at 6 μM (FIG. 3B). Unexpectedly, this phenomenon was not generalizable across enzymes. For example, cleavage rates by the serine protease, thrombin, decreased with increasing presentation distance when the same substrate was tested (e.g., V at 6 μM of substrate decreased from 0.29 to 0.01 nM s^−1; FIG. 3C). Nor was it generalizable across substrates. […] The presentation of the MMP9 substrate on the ABNs described in this example exploited the increased on-target and decreased off-target protease cleavage that occurs for long tether lengths.
Nanoparticles coupled with intramolecularly quenched peptide substrates were reacted with recombinant proteases to identify cleavage velocities. NPs were mixed with 1% (w/v) BSA (Sigma) and incubated with recombinant proteases (MMP-9, Enzo Life Sciences; thrombin, Haematologic Technologies) in a final volume of 50 μl in enzyme-specific buffers (MMP9 buffer: 50 mM Tris, 150 mM NaCl, 5 mM CaCl2), 1 μM ZnCl2, pH 7.5; thrombin: PBS) in a 384-well plate for time-lapse fluorimetry to measure dequenching at 37° C. (SpectroMax Gemini EM microplate reader). Michaelis-Menten constants were determined by assessing initial cleavage velocities at different substrate concentrations (Prism 5.0, GraphPad). The final MMP-9 concentration was 100 nM and the final thrombin concentration was 7 nM.

mouse MMP9 = mouse MMP9 (Mus musculus, UniProt P41245); test: Cleavage of MMP9 substrate by mouse MMP9; type: biochemical
Chain of mouse MMP9 (P41245 108-730): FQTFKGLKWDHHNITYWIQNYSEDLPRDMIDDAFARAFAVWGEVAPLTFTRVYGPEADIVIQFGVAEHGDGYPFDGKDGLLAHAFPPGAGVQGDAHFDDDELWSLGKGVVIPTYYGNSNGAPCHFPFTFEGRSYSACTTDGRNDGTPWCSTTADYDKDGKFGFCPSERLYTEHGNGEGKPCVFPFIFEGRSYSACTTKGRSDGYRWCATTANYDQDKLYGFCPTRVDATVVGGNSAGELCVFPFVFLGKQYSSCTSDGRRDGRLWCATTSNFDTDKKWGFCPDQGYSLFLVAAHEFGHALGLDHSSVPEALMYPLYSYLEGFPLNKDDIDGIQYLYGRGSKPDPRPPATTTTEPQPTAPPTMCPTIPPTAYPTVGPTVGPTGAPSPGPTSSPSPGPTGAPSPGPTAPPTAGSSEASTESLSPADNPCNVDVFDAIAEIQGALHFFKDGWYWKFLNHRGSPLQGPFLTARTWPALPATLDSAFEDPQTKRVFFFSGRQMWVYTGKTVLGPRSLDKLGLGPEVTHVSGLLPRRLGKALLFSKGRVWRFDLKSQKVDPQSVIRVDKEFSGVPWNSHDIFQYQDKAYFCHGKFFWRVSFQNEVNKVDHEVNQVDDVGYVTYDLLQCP
Description: FIGS. 14A-14B show iRGD ABNz characterization.
Receptor expression on tumors varies by tumor type and patient. In this example, another ABN was produced using the tumor-penetrating ligand, iRGD (CRGDKGPDC; SEQ ID NO: 2). This peptide engages the same active-internalization pathway as LyP-1, but binds to αvβ3 or αvβ5 integrin heterodimers as its primary receptor, which are ectopically overexpressed in a large subset of cancers (FIG. 12A). The tumor-targeting peptides iRGD and LyP-1 were bound to ABNs and administered to an immunocompetent mouse model of colorectal liver metastasis (CLM), induced via an intrasplenic injection of p32-negative, integrin-positive and NRP-1-positive MC-26 cells (FIG. 12B-12C and FIGS. 13A-13C). MC-26 cells are derived from a mouse colorectal cancer line and secrete MMP9, which can be detected in the tumor nodules as well as in the tumor-adjacent liver, but not in non-tumor-bearing liver lobes (FIG. 12D). The stoichiometries for substrate conjugation on iRGD ABNs were similar to those used on the LyP-1 ABNs (FIG. 14A). […] This was consistent in the model of orthotopic ovarian cancer (FIG. 15D).

matrix-metalloprotease = test: Cleavage of MMP9 substrate by OVCAR-8 conditioned media with and without MMP inhibitor; type: biochemical, human
OVCAR-8 tumor nodules = test: Blood biomarker HE4 ELISA in orthotopic OVCAR-8 ovarian cancer model; type: in vivo, mouse
Method: The ability of ABNs to: (1) detect low-burden ovarian cancer and (2) outperform a clinical blood biomarker were tested. Detection by ABNs was compared to the blood biomarker HE4, as OVCAR-8 cells produce relatively high levels of this protein, on a par with four other human ovarian cancer cell lines (FIGS. 10B-10C). […] This threshold of sensitivity is critical, as clinically approved imaging modalities can typically only resolve individual tumor nodules greater than 5 mm in diameter. Additionally, it has been estimated that to decrease serous ovarian cancer mortality by 50% with an annual screen, a test would have to be sensitive to tumors of <5 mm. […] It was confirmed that the tumor nodule retrieval methodology described in this example accounted for greater than 80% of the tumor burden by measuring luminescence pre- and post-resection (FIGS. 11D-11G). The tumor burden remaining can be attributed to uncollected macroscopic and microscopic lesions.
To generate an orthotopic model of human ovarian cancer, three- to four-week-old female NCr nude mice were injected intraperitoneally with 2×10^6 OVCAR-8 cells expressing firefly luciferase. Tumor burden was measured via luminescence using an in vivo imaging system (IVIS, PerkinElmer). Each mouse was sacrificed and the tumors were retrieved from all organs in the peritoneal space. Tumors were collected on a glass slide and scanned on a LI-COR Odyssey with 169 μm resolution. Widths and lengths were measured with ImageJ and tumor volume was calculated as described above for subcutaneous tumors. The reported tumor volumes for each group are the average of ten mice. Before tumor induction, urine measurements were performed by injecting mice with 0.5 μM LyP1 ABNs. Approximately 200 μl of blood was collected and spiked with EDTA to a final concentration of 5 mM, and the blood cells were pelleted. Plasma was stored at −20° C. prior to HE4 quantification. HE4 levels were measured using the HE4 quantikine ELISA kit.

5-FAM-GGPLGVRGKK(CPQ2)-PEG2-C (5FAM-GGPLGVRGKK(CPQ2)[PEG2′]C) [MMP9 peptide substrate, MMP9 peptide substrate (PLGVRGK) flanked by a FRET pair, presented on nanoparticle surface at varying PEG tether lengths]
cleavage velocity (V) by MMP9 (MMP9; longest presentation distance (tether length)): 0.96 nM/s | cleavage velocity (V) by MMP9 (MMP9; shortest presentation distance (tether length)): 0.24 nM/s | cleavage velocity (V) by thrombin (thrombin; longest presentation distance): 0.01 nM/s | cleavage velocity (V) by thrombin (thrombin; shortest presentation distance): 0.29 nM/s | cleavage by mouse MMP9 (mouse MMP9): readily able to cleave

5-FAM-GGfPRSGGGK(CPQ2)-PEG2-C [thrombin-selective substrate]
optimal presentation length for thrombin cleavage (thrombin; varying linker lengths on nanoparticle surface): optimally presented at an intermediate length

CNC(=O)[C@@H](NC(=O)[C@H](CC(C)C)[C@H](O)C(=O)NO)C(C)(C)C [marimistat]
inhibition of cleavage of MMP9 substrate by OVCAR-8 conditioned media (matrix-metalloprotease): can be inhibited | inhibition of cleavage of MMP9 substrate by OVCAR-8 conditioned media (matrix-metalloprotease; listed as Marimistat): can inhibit a significant portion of the cleavage

B1: HE4: human epididymis protein, clinical blood biomarker used as comparator diagnostic, measured by ELISA (protein, UniProt Q14508 31-124, looked up)
WAP four-disulfide core …: EKTGVCPELQADQNCTQECVSDSECADNLKCCSAGCATFCSLPNDKEGSCPQVNINFPQLGLCRDQCQVDSQCPGQMKCCRNGCGKVSCVTPNF
limit of detection (tumor volume) (OVCAR-8 tumor nodules; 3 weeks): 88 mm^3 | ROC-AUC (OVCAR-8 tumor nodules; three weeks): 0.93 | ROC-AUC (OVCAR-8 tumor nodules; two weeks): 0.51
